Reference: paper PMC5737488
Values joined by “and” are separate entries in the source; they are usually repeats but may differ in a detail not shown here. Equal entries are not always repeated.

Legend:
[1] = target: E. coli RNA polymerase core enzyme (α2ββ′ω) (E. coli) (UniProt P0A7Z4); test: co-sedimentation
[2] = target: vacant E. coli 70S ribosome (lacking bound mRNA and tRNAs) (E. coli) (UniProt P0AG67); test: co-sedimentation

Substance | stoichiometry N (ribosome per RNA polymerase) [1] | KD (fit assuming only monomeric holoenzyme) [2] | Kd [2] | percent bound to the ribosome [2] | percent of RNA polymerase co-migrating with ribosomes [2] | stoichiometry N (RNA polymerase per ribosome) [2]
vacant E. coli 70S ribosome (lacking bound mRNA and tRNAs) (from UniProt P0AG67;P0A7V0;P02358;P02359;P0A7X3;P0A7R9;P0A7L0;P0A7R1;P0A7K2;P0A7K6) (complex) | 1 |  |  |  |  | 
E. coli RNA polymerase holoenzyme (core enzyme with bound sigma factor σ70) (from UniProt P0A7Z4;P0A8V2;P0A8T7;P0A800;P00579) (complex) |  | 1.2 µM | 1.4 µM | 31% |  | 
E. coli RNA polymerase core enzyme (α2ββ′ω) (from UniProt P0A7Z4;P0A8V2;P0A8T7;P0A800) (complex) |  |  | 0.93 µM | 90% | 80% | 2 and 1
transcription elongation complex (core RNA polymerase with a bound DNA:RNA scaffold) (from UniProt P0A7Z4;P0A8V2;P0A8T7;P0A800) |  |  |  | 15% |  | 
